In US20200399712A1, “COMPOSITIONS AND METHODS FOR THE DIAGNOSIS AND DETECTION OF TUMORS AND CANCER PROGNOSIS” (priority 2018, published 2020):
Entries after “also recorded” stand apart in the source; their conditions may differ. Marks after values point to notes of the source that are not given here.

Columns and labels:
[1] = system: HPV-16; experiment: qPCR sensitivity against HPV-HNSCC tumor samples diluted among 10 ng normal human DNA
[2] = system: HPV-16 genome; experiment: qPCR sensitivity against HPV-16 copy number (known-copy HPV-16 DNA among 10 ng normal human DNA)
Source text: (§1) All samples were run in triplicates.
To seek the most promising primer-probe set in the viewpoint of sensitivity, Applicants evaluated the sensitivity analysis for these candidate primer-probe sets. […] Therefore, the sensitivity of E6 (FIG. 3A) and E7 (FIG. 3B) was also 30 copies. […] The candidate primer-probe sets were the “Min-4” (FIG. 3C), “Min-5” (FIG. 3D), “Min-6” (FIG. 3E), “Max-10” (FIG. 3F), “E6-11” (FIG. 3G), “E6-13” (FIG. 3H), respectively.
In addition, Applicants performed sensitivity analysis to identify the most sensitive primer/probe set from among the candidate sets.
To validate the function of primer/probe sets, Applicants calculated the slope of delta Rn against cycle threshold for HPV-16 copy number detection from defined HPV copy number DNA derived from CaSki cell line.

[3] = system: HPV DNA; experiment: CLIA HPV test pilot study on saliva rinse samples from HPV-positive HNSCC patients and non-cancer controls; set-up: species or system HPV16; HPV16 DNA measured by CLIA HPV test: unit not given here
Method: As a final validation, Applicants a small pilot study was performed on a blinded set of saliva rinse samples from 28 patients with HPV-positive HNSCC and 15 salivary rinses from non-cancer controls. […] The sensitivity increased to 96% when all three sets were used (Table 3).

[4] = system: HPV16 DNA; experiment: CLIA test for HPV16, performance characteristics in plasma
Source text: (§2) These primer/probe sets were adapted for development of a CLIA test for HPV16 DNA detection in plasma and salivary rinses (Table 2). Test performance was improved, so that analytical sensitivity in salivary rinse spike in assays ranges from 2.5-5.0 DNA copies/mL with 100% specificity for the three primer/probe sets that are now part of the component assay, resulting in a five-fold improvement in analytic sensitivity that is in the range of sensitivity found in sequence based liquid biopsy methods (FIG. 23, Table 2). Additionally, the assays can be used quantitatively, with measuring ranges between 2.0 log10-7.0 log10 copies/mL.

[5] = system: HPV16 DNA; experiment: CLIA test for HPV16, performance characteristics in salivary rinse
Source text: as §2

[6] = system: HPV-16; experiment: qPCR on 20 ng DNA from saliva samples of HPV-HNSCC patients; details: 28 HPV-HNSCC saliva samples
Method: as §1
The sensitivity of detection from saliva 20 ng DNA samples is 32.1% (9/28) in E6 primer-probe sets, 42.9% (12/28) in E7 primer-probe sets, 35.7% (10/28) in “Min-5” primer-probe sets, 46.4% (13/28) in “Max-10” primer-probe sets. The sensitivity of combination of “5” and “10” is 50% (14/28) and that of E6 and E7 is 42.9% (12/28). By the standard curve analysis, the copy numbers that detected by “Max-10” primer-probe sets were the highest in these 4 primer-probe sets. The slope of standard curve is −3.5 in “Min-5” primer-probe sets when delta Rn is plotted against cycle threshold (FIG. 5).

[7] = tumor DNA dilution, fraction of 32 samples
[8] = among 10 ng normal DNA, triplicate qPCR
[9] = samples tested 3 times, 10 ng DNA from healthy individual
[10] = first template ('... HPV16', word is an image)
[11] = second template (name is an image)

B1: E7: previously designed (historical) HPV-16 E7 primers and Taqman probe, SEQ ID NO: 10-12; part of CLIA test (nucleic acid)
DNA 1: CCGGACAGAGCCCATTACAA
DNA 2: CGAATGTCTACGTGTGTGCTTTG
DNA 3: CGCACAACCGAAGCGTAGAGTCACACT
modifications: Taqman probe, labels not given here
notes: part of CLIA test
**Q.** What does the source list for B1?
**A.** sensitivity under 100 cells ([1]; 32 HPV-HNSCC tumor samples): 96.9%; sensitivity under single cells ([1]; 32 HPV-HNSCC tumor samples, 6.6 pg DNA): 9.4%; sensitivity under 10 cells ([1]; 32 HPV-HNSCC tumor samples, 66 pg DNA): 68.8%; Threshold of tumor cell numbers for HPV-16 detection ([1]; Sample # 1): 60.0 tumor cells; Threshold of tumor cell numbers for HPV-16 detection ([1]; Sample # 2): 30.0 tumor cells; Threshold of tumor cell numbers for HPV-16 detection ([1]; Sample # 3): 30.0 tumor cells; Threshold of tumor cell numbers for HPV-16 detection ([1]; Sample # 4): 150.0 tumor cells; Threshold of tumor cell numbers for HPV-16 detection ([1]; Sample # 5): 6.0 tumor cells; Threshold of tumor cell numbers for HPV-16 detection ([1]; Sample # 6): 6.0 tumor cells; Threshold of tumor cell numbers for HPV-16 detection ([1]; Sample # 7): 30.0 tumor cells; Threshold of tumor cell numbers for HPV-16 detection ([1]; Sample # 8): 15.0 tumor cells; Threshold of tumor cell numbers for HPV-16 detection ([1]; Sample # 9): 30.0 tumor cells; Threshold of tumor cell numbers for HPV-16 detection ([1]; Sample # 10): 6.0 tumor cells; Threshold of tumor cell numbers for HPV-16 detection ([1]; Sample # 11): 6.0 tumor cells; Threshold of tumor cell numbers for HPV-16 detection ([1]; Sample # 12): 30.0 tumor cells; Threshold of tumor cell numbers for HPV-16 detection ([1]; Sample # 13): 6.0 tumor cells; Threshold of tumor cell numbers for HPV-16 detection ([1]; Sample # 14): 6.0 tumor cells; Threshold of tumor cell numbers for HPV-16 detection ([1]; Sample # 15): 6.0 tumor cells; Threshold of tumor cell numbers for HPV-16 detection ([1]; Sample # 16): 6.0 tumor cells; Threshold of tumor cell numbers for HPV-16 detection ([1]; Sample # 17): 1.2 tumor cells; Threshold of tumor cell numbers for HPV-16 detection ([1]; Sample # 18): 6.0 tumor cells; Threshold of tumor cell numbers for HPV-16 detection ([1]; Sample # 19): 1.2 tumor cells; Threshold of tumor cell numbers for HPV-16 detection ([1]; Sample # 20): 1.2 tumor cells; Threshold of tumor cell numbers for HPV-16 detection ([1]; Sample # 21): 1.2 tumor cells; Threshold of tumor cell numbers for HPV-16 detection ([1]; Sample # 22): 1.2 tumor cells; Threshold of tumor cell numbers for HPV-16 detection ([1]; Sample # 23): 1.2 tumor cells; Threshold of tumor cell numbers for HPV-16 detection ([1]; Sample # 24): 1.2 tumor cells; Threshold of tumor cell numbers for HPV-16 detection ([1]; Sample # 25): 0.3 tumor cells; Threshold of tumor cell numbers for HPV-16 detection ([1]; Sample # 26): 0.3 tumor cells; Threshold of tumor cell numbers for HPV-16 detection ([1]; Sample # 27): 1.0 tumor cells; Threshold of tumor cell numbers for HPV-16 detection ([1]; Sample # 28): 1.0 tumor cells; Threshold of tumor cell numbers for HPV-16 detection ([1]; Sample # 29): 3.0 tumor cells; Threshold of tumor cell numbers for HPV-16 detection ([1]; Sample # 30): 15.0 tumor cells; Threshold of tumor cell numbers for HPV-16 detection ([1]; Sample # 31): 0.6 tumor cells; Threshold of tumor cell numbers for HPV-16 detection ([1]; Sample # 32): 15.0 tumor cells; Sensitivity, 1 cell [1, 7]: 0.094; Sensitivity, 3 cells [1, 7]: 0.375; Sensitivity, 10 cells [1, 7]: 0.688; Sensitivity, 30 cells [1, 7]: 0.938*; Sensitivity, 100 cells [1, 7]: 0.969*; sensitivity (HPV-16 copies) ([2]; HPV-16 genome among normal 10 ng DNA samples, consistent triplicate reaction): 30 copies; reaction under 10 copies of HPV-16 genome [2, 8]: reacted inconsistently; reaction under 30 copies of HPV-16 genome [2, 8]: reacted consistently triplicate; also recorded: reacted consistently in triplicates; number of reactions against 10 HPV-16 copies [2, 9]: 2 reactions; number of reactions under 30 HPV-16 copies [2, 9]: 3 reactions; sensitivity for the detection of HPV DNA in saliva rinse samples ([3]; 28 patients with HPV-positive HNSCC): 82%; HPV16 DNA measured by CLIA HPV test ([3]; saliva sample from HPV-HNSCC patient # 1): 328000; HPV16 DNA measured by CLIA HPV test ([3]; saliva sample from HPV-HNSCC patient # 2): 50000; HPV16 DNA measured by CLIA HPV test ([3]; saliva sample from HPV-HNSCC patient # 3): 48500; HPV16 DNA measured by CLIA HPV test ([3]; saliva sample from HPV-HNSCC patient # 4): 46500; HPV16 DNA measured by CLIA HPV test ([3]; saliva sample from HPV-HNSCC patient # 5): 14700; HPV16 DNA measured by CLIA HPV test ([3]; saliva sample from HPV-HNSCC patient # 6): 7320; HPV16 DNA measured by CLIA HPV test ([3]; saliva sample from HPV-HNSCC patient # 7): 4950; HPV16 DNA measured by CLIA HPV test ([3]; saliva sample from HPV-HNSCC patient # 8): 1570; HPV16 DNA measured by CLIA HPV test ([3]; saliva sample from HPV-HNSCC patient # 9): 1020; HPV16 DNA measured by CLIA HPV test ([3]; saliva sample from HPV-HNSCC patient # 10): 981; HPV16 DNA measured by CLIA HPV test ([3]; saliva sample from HPV-HNSCC patient # 11): 521; HPV16 DNA measured by CLIA HPV test ([3]; saliva sample from HPV-HNSCC patient # 12): 155; HPV16 DNA measured by CLIA HPV test ([3]; saliva sample from HPV-HNSCC patient # 13): 140; HPV16 DNA measured by CLIA HPV test ([3]; saliva sample from HPV-HNSCC patient # 14): 82.7; HPV16 DNA measured by CLIA HPV test ([3]; saliva sample from HPV-HNSCC patient # 15): 62.6; HPV16 DNA measured by CLIA HPV test ([3]; saliva sample from HPV-HNSCC patient # 16): 41.2; HPV16 DNA measured by CLIA HPV test ([3]; saliva sample from HPV-HNSCC patient # 17): 14.1; HPV16 DNA measured by CLIA HPV test ([3]; saliva sample from HPV-HNSCC patient # 18): 9.69; HPV16 DNA measured by CLIA HPV test ([3]; saliva sample from HPV-HNSCC patient # 19): 8.17; HPV16 DNA measured by CLIA HPV test ([3]; saliva sample from HPV-HNSCC patient # 20): 6.5; HPV16 DNA measured by CLIA HPV test ([3]; saliva sample from HPV-HNSCC patient # 21): 4.02; HPV16 DNA measured by CLIA HPV test ([3]; saliva sample from HPV-HNSCC patient # 22): 2.52; HPV16 DNA measured by CLIA HPV test ([3]; saliva sample from HPV-HNSCC patient # 23): 0.986; Accuracy - Plasma Blind Panel, Negative % Agreement [4]: 90%; Accuracy - Plasma Blind Panel, Positive % Agreement [4]: 100%; Accuracy - Plasma Blind Panel, Total % Agreement [4]: 97%; Measuring Range - Plasma ([4]; first template ('... HPV16')): 2.0-8.5 log10 log10 copies/mL; Limit of Detection - Plasma [4, 10]: 1.5 copies/mL; Limit of Detection - Plasma [4, 11]: 13 copies/mL; Measuring Range - Plasma [4, 11]: 2.0-5.0 log10 log10 copies/mL; Measuring Range - Salivary Rinse ([5]; first template ('... HPV16')): 2.0-8.5 log10 log10 copies/mL; Limit of Detection - Salivary rinse [5, 10]: 3 copies/mL; Limit of Detection - Salivary rinse [5, 11]: 23 copies/mL; Measuring Range - Salivary Rinse [5, 11]: 2.0-6.5 log10 log10 copies/mL; sensitivity of detection from saliva 20 ng DNA samples [6]: 42.9%
